Measured values reported in paper PMC4642984.

Key:
[1] = target: ELucC-BMAL1 deletion mutant Bd4 (mouse) (UniProt Q9WTL8); assay: split reporter (BiFC, NanoBiT); Split Luc complementation in living Cos7 cells transfected with ELucN-CK2β and ELucC-BMAL1 (WT or mutant) together with pcDNA, Myc-HA-CRY1, Myc-CRY2 or FLAG-CRY1 (WT or Cd1-4); real-time bioluminescence, averaged peak values
[2] = target: ELucC-BMAL1 deletion mutant Bd5 (mouse) (UniProt Q9WTL8); assay: as above
ELucC-BMAL1 deletion mutant Bd5 (mouse), sequence (Q9WTL8 other isoform, or with tags, fused parts or gaps, stated change not applied): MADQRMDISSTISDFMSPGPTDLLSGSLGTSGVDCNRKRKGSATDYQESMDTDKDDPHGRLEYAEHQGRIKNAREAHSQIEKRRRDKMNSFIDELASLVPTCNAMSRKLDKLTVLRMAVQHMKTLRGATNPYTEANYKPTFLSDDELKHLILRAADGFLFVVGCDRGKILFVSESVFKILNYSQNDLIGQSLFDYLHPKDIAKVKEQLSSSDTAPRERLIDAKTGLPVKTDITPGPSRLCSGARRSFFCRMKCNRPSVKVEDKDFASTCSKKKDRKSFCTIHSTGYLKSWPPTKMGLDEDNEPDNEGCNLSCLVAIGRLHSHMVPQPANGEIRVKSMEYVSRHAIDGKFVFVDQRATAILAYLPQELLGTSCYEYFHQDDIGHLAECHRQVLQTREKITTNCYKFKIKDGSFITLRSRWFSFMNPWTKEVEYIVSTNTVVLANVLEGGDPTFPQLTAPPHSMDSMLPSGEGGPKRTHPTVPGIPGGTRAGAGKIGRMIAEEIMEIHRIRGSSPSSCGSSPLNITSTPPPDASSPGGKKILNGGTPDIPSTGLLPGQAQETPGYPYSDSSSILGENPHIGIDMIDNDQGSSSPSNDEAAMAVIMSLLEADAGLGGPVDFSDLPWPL

ELucN-CK2β, sequence (P67870 whole entry): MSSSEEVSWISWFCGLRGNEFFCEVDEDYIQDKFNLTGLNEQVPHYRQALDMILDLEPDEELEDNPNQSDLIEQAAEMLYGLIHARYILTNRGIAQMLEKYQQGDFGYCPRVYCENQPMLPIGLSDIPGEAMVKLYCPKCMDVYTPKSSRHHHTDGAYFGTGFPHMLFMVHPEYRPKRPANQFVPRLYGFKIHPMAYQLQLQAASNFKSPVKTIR
ELucC-BMAL1 deletion mutant Bd4 (mouse), sequence (Q9WTL8 other isoform, or with tags, fused parts or gaps, stated change not applied): as the sequence (Q9WTL8 other isoform, or with tags, fused parts or gaps, stated change not applied) above

Split Luc bioluminescence, fold of BMAL1-WT [1]: 2 fold
Split Luc bioluminescence, percent of BMAL1-WT [2]: 30%
Substance: ELucN-CK2β (from UniProt P67870 1-215) (natural protein)
